The numbers were not newly measured in publication PMC2884013, which cites them from elsewhere.

This data set concerns the target Glu78 (UniProt position 78, RISTVEHLNAA). The data set is described as follows: kinetics. Conditions: Zn2+-bound wild-type enzyme.

The pKa is the negative logarithm of the acid dissociation constant. Take “UDP-3-O-(R-3-hydroxymyristoyl)-N-acetylglucosamine deacetylase (LpxC, EcLpxC) (Escherichia coli)”: the pKa is given as 6.2 ± 0.2.
